Drawing on publication doi:10.1101/851261, this text covers IC50 for 2 substances.

The target of experiment [1] is AjKissR1 (Apostichopus japonicus). As to the kind of experiment: flow cytometry on cells. (In general: A flow cytometer gives signals particle by particle.)
The target in experiment [2] is AjKissR2 (Apostichopus japonicus). As to the kind of experiment: flow cytometry on cells.

In experiment [1], AjKiss1b (peptide) registered an IC50 of 353 nM.

For AjKiss1a (peptide), the IC50 in experiment [2] was 95.2 nM.

The IC50 is the concentration that gives 50% inhibition.
